{"source": "patent US5935824A", "about": "“Protein expression system” (Technologene, Inc., priority 1996, dated 1999)", "substrate": "C[C@H](NC(=O)[C@H](Cc1ccccc1)NC(=O)OCc1ccccc1)C(=O)O", "experiment": "Flow digestion of N-CBZ-peptides through CPD-Y Acti Disk, ninhydrin assays", "type": "biochemical, yeast", "conditions": "other: free enzyme; calculated from Sigma specific activity", "experimental": "The reported Km values for CPD-Y have been generated using extremely low enzyme concentration compared to substrate concentration. The value for Km represents the concentration of substrate that will produce 1/2 the maximum velocity for the initial reaction rates. During the testing of the immobilized CPD-Y enzyme disks with various dipeptide substrates, the maximum flow rate that can be achieved without any substantial increase in the pressure of the solution, is 4 ml/min. At this flow rate, the substrate remains within the immobilized enzyme matrix for 1.74 seconds. This value is determined by dividing the internal porous volume of the matrix to which the enzyme is immobilized (115 μL/4000 μL, min^-1). […]\nStandard ninhydrin assay: Hydrolysis of the non-proline containing N-CBZ-dipeptides was determined by assaying the amount of free amino acid released by a colorometric ninhydrin reaction at a pH greater than 5.2. […] Samples were then cooled to room temperature and 600 μl of 60% ethanol was added as the diluent and the absorbance was read at 570 nm on a Beckman DU 7000 spectrophotometer.\nProline ninhydrin assay: Hydrolysis of proline-containing N-CBZ-dipeptides were measured with a modified version of the assay described by Magne and Larher [Anal. Biochem., 200:115 (1982)]. […]", "data": [{"protein": "carboxypeptidase Y (CPD-Y) immobilized to Acti-Disk (Saccharomyces cerevisiae S288C) (protein, purchased Sigma) KIKDPKILGIDPNVTQYTGYLDVEDEDKHFFFWTFESRNDPAKDPVILWLNGGPGCSSLTGLFFELGPSSIGPDLKPIGNPYSWNSNATVIFLDQPVNVGFSYSGSSGVSNTVAAGKDVYNFLELFFDQFPEYVNKGQDFHIAGESYAGHYIPVFASEILSHKDRNFNLTSVLIGNGLTDPLTQYNYYEPMACGEGGEPSVLPSEECSAMEDSLERCLGLIESCYDSQSVWSCVPATIYCNNAQLAPYQRTGRNVYDIRKDCEGGNLCYPTLQDIDDYLNQDYVKEAVGAEVDHYESCNFDINRNFLFAGDWMKPYHTAVTDLLNQDLPILVYAGDKDFICNWLGNKAWTDVLPWKYDEEFASQKVRNWTASITDEVAGEVKSYKHFTYLRVFNGGHMVPFDVPENALSMVNEWIHGGFSL", "values": [{"measurement": "kcat", "result": 103.3, "unit": "s⁻¹"}]}]}
